Assay [1] deals with T1, glutathione S-transferase (GST) (UniProt P08515 1-218 = GST). Description: GST pull-down, anti-MUC1/CD immunoblot (FIG. 1B).
The target in assay [2] is T1, glutathione S-transferase (GST). The experiment in a line: GST pull-down, anti-MUC1/CD immunoblot (FIG. 4A). On the technique in general: In western blotting, separated proteins are transferred to a membrane and probed.
Method: The proteins in the eight different reaction mixtures were incubated with either GST or GST fused to β-catenin (“GST-β-Cat”). The resulting mixtures were incubated with glutathione-Sepharose 4B™ beads.
The beads were then added to the phosphorylation reaction mixture (described above) which was incubated for 1 h at 4° C.

T1 sequence (P08515 whole entry): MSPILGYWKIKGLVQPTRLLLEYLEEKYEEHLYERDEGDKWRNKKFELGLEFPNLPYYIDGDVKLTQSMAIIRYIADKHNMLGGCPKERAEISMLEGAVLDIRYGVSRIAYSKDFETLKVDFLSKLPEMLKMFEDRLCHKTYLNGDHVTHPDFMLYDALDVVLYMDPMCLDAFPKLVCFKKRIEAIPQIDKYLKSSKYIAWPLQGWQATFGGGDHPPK

B1: MUC1/CD (purified hexahistidine tagged MUC1 cytoplasmic domain), unphosphorylated (other)
chain: CQCRRKNYGQLDIFPARDTYHPMSEYPTYHTHGRYVPPSSTDRSPYEKVSAGNGGSSLSYTNPAVAATSANL
notes: also called His-MUC1/CD; MUC1/CD (WT); not shown: hexahistidine tag
As for B1, the binding result in assay [1] was “no binding”.

B2: MUC1/CD phosphorylated by c-Src (incubated with c-Src and ATP) (other)
chain: B1 chain
modifications: phosphotyrosine at 46 (YEKV site) and at other sites that are not named; made in vitro with purified c-Src and ATP
notes: also called phosphorylated MUC1/CD; not shown: hexahistidine tag
Regarding B2, in assay [2], the binding result was “no binding”.
